Our source for the koff, kon and Kd values is US20050037339A1 (published 2005).

Experiment [1] addresses T1, BoNT-A C-fragment (UniProt P0DPI0 871-1296). As to the kind of experiment: SPR (BIAcore), purified scFv. On the technique in general: SPR reads the build-up and loss of mass on a sensor chip optically.
The target in experiment [2] is T1, BoNT-A C-fragment. As to the kind of experiment: SPR (BIAcore), purified scFv; Kd calculated as koff/kon.

What is called koff is a measure of how fast the partners let go of each other. Read a high koff as a short-lived complex. By kon is commonly meant a measure of how fast the partners come together. In general, Kd refers to the equilibrium constant for the complex coming apart.

T1 sequence (P0DPI0 871-1296): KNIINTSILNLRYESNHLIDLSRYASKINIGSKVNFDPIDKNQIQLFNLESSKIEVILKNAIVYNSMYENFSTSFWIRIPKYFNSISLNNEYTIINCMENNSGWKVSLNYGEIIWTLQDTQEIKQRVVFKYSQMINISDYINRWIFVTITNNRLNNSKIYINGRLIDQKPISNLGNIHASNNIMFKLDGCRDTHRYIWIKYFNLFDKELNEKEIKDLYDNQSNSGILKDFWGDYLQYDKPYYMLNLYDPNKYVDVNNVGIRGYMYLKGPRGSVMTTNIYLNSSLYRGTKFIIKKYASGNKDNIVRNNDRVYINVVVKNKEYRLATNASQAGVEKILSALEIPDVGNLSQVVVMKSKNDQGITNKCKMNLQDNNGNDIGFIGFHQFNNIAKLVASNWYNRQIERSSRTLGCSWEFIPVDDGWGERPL

B1: anti-BoNT-A scFv 2B6 (scFv)
chain: VKLVESGPGLVKPSQSLSLTCTVTGYSITSDYAWNWIRQFPGNKLEWMGYINYDGSNNYNPSLKNRISITRDTSKNQFFLKLNSVTSEDTATYYCARAGDGYYVDWYFDVWGTGTTVIVSSGGGGSGGGGSGGGGSYIELTQSPASLAVSLGQRATTSCRASESVDSYGNSFMHWYQQKPGQPPKLLIYLASNLESGVPARFSGSGSRTDFTLTIDPVEADDAATYYCQQNNEDPYTFGGGTKLEIKS
Consider B1, for which, in experiment [1], the koff amounted to 0.0078 s⁻¹ and the kon amounted to 110000 M⁻¹ s⁻¹. Besides, in experiment [2], the Kd is 71.5 nM.
